According to paper PMC9482650, “Quantitative fragmentomics allow affinity mapping of interactomes” (Nature Communications, 2022):

B1: HPV82-E6, Q9IR59 (peptide)
chain: PPRQRSETQV
B2: SLC15A5, A6NIM6 (peptide)
chain: SSIDLWETAL

Tests used:
Assay in all cases: holdup assay
Parameters in all cases: key: below the threshold = too weak to quantify, mostly under pKd 3.1 to 4
Conditions in all cases: plain residues with an end cap or a label only (N-terminal biotin on a linker: ttds)
Inadl_2, Q8NI35 = molecular target: Inadl_2, Q8NI35
Chain of Inadl_2, Q8NI35 (Q8NI35 238-335): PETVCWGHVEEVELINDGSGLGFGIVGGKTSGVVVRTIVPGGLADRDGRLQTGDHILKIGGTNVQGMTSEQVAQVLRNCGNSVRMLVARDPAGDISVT

SCRIB_1, Q14160 = molecular target: SCRIB_1, Q14160
Chain of SCRIB_1, Q14160 (Q14160 718-814): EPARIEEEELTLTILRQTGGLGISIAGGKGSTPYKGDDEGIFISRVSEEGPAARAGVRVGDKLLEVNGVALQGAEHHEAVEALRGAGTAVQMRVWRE

MPP6, Q9NZW5 = molecular target: T1, MPP6, Q9NZW5
T1 sequence (Q9NZW5 125-219, limits assumed, looked up): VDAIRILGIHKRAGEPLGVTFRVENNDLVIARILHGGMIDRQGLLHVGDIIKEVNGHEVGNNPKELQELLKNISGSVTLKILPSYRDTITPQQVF

HTRA4, P83105 = molecular target: T2, HTRA4, P83105
T2 sequence (P83105 378-476, limits assumed, looked up): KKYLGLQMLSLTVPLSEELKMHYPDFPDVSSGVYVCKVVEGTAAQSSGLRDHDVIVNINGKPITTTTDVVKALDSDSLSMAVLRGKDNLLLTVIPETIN

Inadl_8, Q8NI35 = molecular target: Inadl_8, Q8NI35
Chain of Inadl_8, Q8NI35 (Q8NI35 1425-1530): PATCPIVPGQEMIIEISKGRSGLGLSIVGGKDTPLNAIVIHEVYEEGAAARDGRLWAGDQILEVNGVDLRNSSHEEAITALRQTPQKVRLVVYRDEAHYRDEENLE

LRRC7, Q96NW7 = molecular target: T3, LRRC7, Q96NW7
T3 sequence (Q96NW7 1440-1537, limits assumed, looked up): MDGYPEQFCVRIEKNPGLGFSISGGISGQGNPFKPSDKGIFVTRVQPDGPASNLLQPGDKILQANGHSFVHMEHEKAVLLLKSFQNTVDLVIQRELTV

RHPN1, Q8TCX5 = molecular target: T4, RHPN1, Q8TCX5
T4 sequence (Q8TCX5 508-602, limits assumed, looked up): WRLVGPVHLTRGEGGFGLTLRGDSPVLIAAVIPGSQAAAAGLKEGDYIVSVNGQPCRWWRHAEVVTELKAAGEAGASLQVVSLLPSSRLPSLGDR

ARHGAP21, Q5T5U3 = molecular target: T5, ARHGAP21, Q5T5U3
T5 sequence (Q5T5U3 45-169, limits assumed, looked up): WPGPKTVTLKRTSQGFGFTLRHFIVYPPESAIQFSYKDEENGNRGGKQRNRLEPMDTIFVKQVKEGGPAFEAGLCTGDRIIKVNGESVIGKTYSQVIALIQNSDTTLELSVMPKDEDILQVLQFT

DLG5_1, Q8TDM6 = molecular target: DLG5_1, Q8TDM6
Chain of DLG5_1, Q8TDM6 (Q8TDM6 617-713): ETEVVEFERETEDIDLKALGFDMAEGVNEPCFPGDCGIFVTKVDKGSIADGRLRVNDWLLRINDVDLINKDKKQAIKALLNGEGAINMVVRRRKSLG

FRMPD2_1, Q68DX3 = molecular target: FRMPD2_1, Q68DX3
Chain of FRMPD2_1, Q68DX3 (Q68DX3 770-861): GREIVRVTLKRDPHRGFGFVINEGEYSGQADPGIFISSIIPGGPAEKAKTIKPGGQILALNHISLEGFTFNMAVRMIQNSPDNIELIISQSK

MAGI2_2, Q86UL8 = molecular target: MAGI2_2, Q86UL8
Chain of MAGI2_2, Q86UL8 (Q86UL8 410-522): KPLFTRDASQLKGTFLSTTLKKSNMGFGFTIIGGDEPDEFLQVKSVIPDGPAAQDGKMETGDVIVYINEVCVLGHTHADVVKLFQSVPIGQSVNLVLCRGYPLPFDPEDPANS

DLG2_2, Q15700 = molecular target: DLG2_2, Q15700
Chain of DLG2_2, Q15700 (Q15700 189-283): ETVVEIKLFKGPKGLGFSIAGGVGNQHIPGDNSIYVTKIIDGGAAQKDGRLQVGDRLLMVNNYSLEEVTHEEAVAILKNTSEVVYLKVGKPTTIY

LDB3, O75112 = molecular target: LDB3, O75112
Chain of LDB3, O75112 (O75112 1-94): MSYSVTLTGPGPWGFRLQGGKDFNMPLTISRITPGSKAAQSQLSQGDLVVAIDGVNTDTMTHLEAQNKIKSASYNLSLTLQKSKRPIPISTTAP

GRIP2_6, Q9C0E4 = molecular target: GRIP2_6, Q9C0E4
Chain of GRIP2_6, Q9C0E4 (Q9C0E4 648-740): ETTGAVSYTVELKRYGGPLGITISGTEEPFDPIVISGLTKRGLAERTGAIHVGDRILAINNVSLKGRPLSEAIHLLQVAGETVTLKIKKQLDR

APBA3_1, O96018 = molecular target: T6, APBA3_1, O96018
T6 sequence (O96018 389-490, limits assumed, looked up): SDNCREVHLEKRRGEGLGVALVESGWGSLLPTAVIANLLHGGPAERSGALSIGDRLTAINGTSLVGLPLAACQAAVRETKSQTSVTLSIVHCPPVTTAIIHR

GRIP2_7, Q9C0E4 = molecular target: GRIP2_7, Q9C0E4
Chain of GRIP2_7, Q9C0E4 (Q9C0E4 934-1023): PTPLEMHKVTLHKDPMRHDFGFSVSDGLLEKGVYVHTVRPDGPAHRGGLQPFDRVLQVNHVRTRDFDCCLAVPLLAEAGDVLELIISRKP

GRIP2_3, Q9C0E4 = molecular target: GRIP2_3, Q9C0E4
Chain of GRIP2_3, Q9C0E4 (Q9C0E4 238-339): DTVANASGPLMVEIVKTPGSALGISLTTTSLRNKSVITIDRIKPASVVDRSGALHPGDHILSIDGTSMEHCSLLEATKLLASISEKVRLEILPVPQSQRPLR

IL16_4, Q14005 = molecular target: IL16_4, Q14005
Chain of IL16_4, Q14005 (Q14005 1229-1329): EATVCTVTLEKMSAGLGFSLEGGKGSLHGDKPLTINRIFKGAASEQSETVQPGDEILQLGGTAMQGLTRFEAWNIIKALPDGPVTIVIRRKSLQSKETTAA

DFNB31_3, Q9P202 = molecular target: T7, DFNB31_3, Q9P202
T7 sequence (Q9P202 811-907, limits assumed, looked up): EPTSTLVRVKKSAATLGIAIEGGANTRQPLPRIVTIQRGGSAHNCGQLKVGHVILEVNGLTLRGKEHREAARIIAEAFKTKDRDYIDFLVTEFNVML

SNX27, Q96L92 = molecular target: SNX27, Q96L92
GRIP1_2, Q9Y3R0 = molecular target: T8, GRIP1_2, Q9Y3R0
T8 sequence (Q9Y3R0 145-248, limits assumed, looked up): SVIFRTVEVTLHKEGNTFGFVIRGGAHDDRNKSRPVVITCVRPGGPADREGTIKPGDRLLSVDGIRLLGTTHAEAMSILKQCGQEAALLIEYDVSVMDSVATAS

DLG4_3, P78352 = molecular target: DLG4_3, P78352
Chain of DLG4_3, P78352 (P78352 306-403): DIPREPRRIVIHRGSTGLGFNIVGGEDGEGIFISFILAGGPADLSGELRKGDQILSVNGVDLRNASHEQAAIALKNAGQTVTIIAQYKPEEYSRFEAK

DVL3, Q92997 = molecular target: T9, DVL3, Q92997
T9 sequence (Q92997 244-331, limits assumed, looked up): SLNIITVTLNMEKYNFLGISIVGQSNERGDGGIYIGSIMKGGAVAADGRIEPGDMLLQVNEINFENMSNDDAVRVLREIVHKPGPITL

DLG1_2, Q12959 = molecular target: DLG1_2, Q12959
Chain of DLG1_2, Q12959 (Q12959 314-412): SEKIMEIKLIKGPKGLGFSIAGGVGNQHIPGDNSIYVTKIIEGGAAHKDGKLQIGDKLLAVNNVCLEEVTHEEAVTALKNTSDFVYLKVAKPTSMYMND

MAST2, Q6P0Q8 = molecular target: MAST2, Q6P0Q8
Chain of MAST2, Q6P0Q8 (Q6P0Q8 1099-1202): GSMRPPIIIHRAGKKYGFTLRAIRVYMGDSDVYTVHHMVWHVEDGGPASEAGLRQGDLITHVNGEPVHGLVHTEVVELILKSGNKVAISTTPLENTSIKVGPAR

FRMPD3, Q5JV73 = molecular target: FRMPD3, Q5JV73
Chain of FRMPD3, Q5JV73 (Q5JV73 12-100): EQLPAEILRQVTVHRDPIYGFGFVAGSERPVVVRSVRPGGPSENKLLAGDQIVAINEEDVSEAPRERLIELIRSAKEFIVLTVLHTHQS

LAP2, Q96RT1 = molecular target: LAP2, Q96RT1
Chain of LAP2, Q96RT1 (Q96RT1 other isoform, or with tags, fused parts or gaps): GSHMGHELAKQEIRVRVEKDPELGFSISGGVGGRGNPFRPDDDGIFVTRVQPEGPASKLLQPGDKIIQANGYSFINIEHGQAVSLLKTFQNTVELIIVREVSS

Inadl_9, Q8NI35 = molecular target: Inadl_9, Q8NI35
Chain of Inadl_9, Q8NI35 (Q8NI35 1530-1615): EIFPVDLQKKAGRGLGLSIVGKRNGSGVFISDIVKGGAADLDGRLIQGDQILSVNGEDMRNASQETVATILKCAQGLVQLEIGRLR

Row | Binder | pKd (Inadl_2, Q8NI35) | pKd (SCRIB_1, Q14160) | pKd (MPP6, Q9NZW5) | pKd (HTRA4, P83105) | pKd (Inadl_8, Q8NI35) | pKd (LRRC7, Q96NW7) | pKd (RHPN1, Q8TCX5) | pKd (ARHGAP21, Q5T5U3) | pKd (DLG5_1, Q8TDM6) | pKd (FRMPD2_1, Q68DX3) | pKd (MAGI2_2, Q86UL8) | pKd (DLG2_2, Q15700) | pKd (LDB3, O75112) | pKd (GRIP2_6, Q9C0E4) | pKd (APBA3_1, O96018) | pKd (GRIP2_7, Q9C0E4) | pKd (GRIP2_3, Q9C0E4) | pKd (IL16_4, Q14005) | pKd (DFNB31_3, Q9P202) | pKd (SNX27, Q96L92) | other results
1 | B1 | below the threshold | 4.12 | below the threshold | below the threshold | below the threshold | below the threshold | 3.72 | below the threshold | below the threshold | 3.5 | 5.89 | 4.79 | below the threshold | below the threshold | below the threshold | below the threshold | below the threshold | below the threshold | below the threshold | 4.67 | pKd (GRIP1_2, Q9Y3R0): below the threshold; pKd (DLG4_3, P78352): 4.43; pKd (DVL3, Q92997): below the threshold; pKd (DLG1_2, Q12959): 5.02; pKd (MAST2, Q6P0Q8): 5.18; pKd (FRMPD3, Q5JV73): below the threshold; pKd (LAP2, Q96RT1): 3.45; pKd (Inadl_9, Q8NI35): below the threshold
2 | B2 | below the threshold | 5.76 | below the threshold | below the threshold | below the threshold | 4.47 | 5 | 4.55 | below the threshold | below the threshold | 4.33 | 3.88 | 3.92 | below the threshold | below the threshold | below the threshold | below the threshold | below the threshold | below the threshold | 5.92 | pKd (GRIP1_2, Q9Y3R0): below the threshold; pKd (DLG4_3, P78352): below the threshold; pKd (DVL3, Q92997): below the threshold; pKd (DLG1_2, Q12959): 4.4; pKd (MAST2, Q6P0Q8): 5.44; pKd (FRMPD3, Q5JV73): 4.31; pKd (LAP2, Q96RT1): 4.9; pKd (Inadl_9, Q8NI35): 3.7
